Assays:
[1] = molecular target: Nedd^335-455pT367 + pS448 (human, UniProt Q96PU5 335-455, S342A, phosphothreonine at 367, phosphoserine at 448); test: AUC
[2] = molecular target: Nedd^335-455pS342 + pT367 (human, UniProt Q96PU5 335-455, S448A, phosphoserine at 342, phosphothreonine at 367); test: AUC

Kd [1]: 170 nM
Kd [2]: 200 nM
B1: 14-3-3η (natural protein)
chain: MGDREQLLQRARLAEQAERYDDMASAMKAVTELNEPLSNEDRNLLSVAYKNVVGARRSSWRVISSIEQKTMADGNEKKLEKVKAYREKIEKELETVCNDVLSLLDKFLIKNCNDFQYESKVFYLKMKGDYYRYLAEVASGEKKNSVVEASEAAYKEAFEISKEQMQPTHPIRLGLALNFSVFYYEIQNAPEQACLLAKQAFDDAIAELDTLNEDSYKDSTLIMQLLRDNLTLWTSDQQDEEAGEGN

Reference: publication PMC8298602 (2021)
